IntAct's records for PubMed 31515488

B1: Isoform 1 of Cyclin-dependent kinase 2-interacting protein (Homo sapiens), Q9BW66-1 (parent)
chain: MEAKTLGTVTPRKPVLSVSARKIKDNAADWHNLILKWETLNDAGFTTANNIANLKISLLNKDKIELDSSSPASKENEEKVCLEYNEELEKLCEELQATLDGLTKIQVKMEKLSSTTKGICELENYHYGEESKRPPLFHTWPTTHFYEVSHKLLEMYRKELLLKRTVAKELAHTGDPDLTLSYLSMWLHQPYVESDSRLHLESMLLETGHRAL
partner: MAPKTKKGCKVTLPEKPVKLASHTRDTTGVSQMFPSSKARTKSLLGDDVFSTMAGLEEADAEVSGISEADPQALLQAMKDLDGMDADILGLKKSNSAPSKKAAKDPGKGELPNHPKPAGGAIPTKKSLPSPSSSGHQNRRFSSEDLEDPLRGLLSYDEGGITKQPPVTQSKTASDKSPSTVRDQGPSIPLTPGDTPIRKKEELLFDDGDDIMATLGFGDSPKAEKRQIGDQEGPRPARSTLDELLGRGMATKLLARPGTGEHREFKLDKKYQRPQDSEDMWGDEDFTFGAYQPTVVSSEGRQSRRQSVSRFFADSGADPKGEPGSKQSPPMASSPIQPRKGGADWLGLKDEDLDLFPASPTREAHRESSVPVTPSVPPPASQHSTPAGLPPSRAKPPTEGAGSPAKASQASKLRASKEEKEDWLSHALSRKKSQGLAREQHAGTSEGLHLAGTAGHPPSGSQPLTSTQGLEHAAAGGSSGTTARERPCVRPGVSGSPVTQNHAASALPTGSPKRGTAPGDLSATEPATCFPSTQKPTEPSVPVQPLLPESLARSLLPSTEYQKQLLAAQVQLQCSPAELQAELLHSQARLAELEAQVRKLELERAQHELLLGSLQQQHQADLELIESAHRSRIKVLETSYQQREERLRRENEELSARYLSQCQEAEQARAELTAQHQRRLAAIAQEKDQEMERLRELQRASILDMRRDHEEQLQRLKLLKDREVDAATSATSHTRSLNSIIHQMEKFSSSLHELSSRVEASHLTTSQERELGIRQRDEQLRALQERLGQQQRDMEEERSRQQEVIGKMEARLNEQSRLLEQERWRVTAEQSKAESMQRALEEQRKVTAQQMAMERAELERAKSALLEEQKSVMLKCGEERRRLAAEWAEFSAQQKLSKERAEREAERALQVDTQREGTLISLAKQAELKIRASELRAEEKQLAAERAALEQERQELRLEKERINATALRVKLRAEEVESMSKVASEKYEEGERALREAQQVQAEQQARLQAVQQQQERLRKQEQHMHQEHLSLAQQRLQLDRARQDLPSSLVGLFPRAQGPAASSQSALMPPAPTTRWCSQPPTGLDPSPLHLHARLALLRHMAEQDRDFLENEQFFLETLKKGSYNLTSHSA
B2: Ribosome quality control complex subunit TCF25 (Homo sapiens), Q9BQ70 (parent)
chain: MSRRALRRLRGEQRGQEPLGPGALHFDLRDDDDAEEEGPKRELGVRRPGGAGKEGVRVNNRFELINIDDLEDDPVVNGERSGCALTDAVAPGNKGRGQRGNTESKTDGDDTETVPSEQSHASGKLRKKKKKQKNKKSSTGEASENGLEDIDRILERIEDSTGLNRPGPAPLSSRKHVLYVEHRHLNPDTELKRYFGARAILGEQRPRQRQRVYPKCTWLTTPKSTWPRYSKPGLSMRLLESKKGLSFFAFEHSEEYQQAQHKFLVAVESMEPNNIVVLLQTSPYHVDSLLQLSDACRFQEDQEMARDLVERALYSMECAFHPLFSLTSGACRLDYRRPENRSFYLALYKQMSFLEKRGCPRTALEYCKLILSLEPDEDPLCMLLLIDHLALRARNYEYLIRLFQEWEAHRNLSQLPNFAFSVPLAYFLLSQQTDLPECEQSSARQKASLLIQQALTMFPGVLLPLLESCSVRPDASVSSHRFFGPNAEISQPPALSQLVNLYLGRSHFLWKEPATMSWLEENVHEVLQAVDAGDPAVEACENRRKVLYQRAPRNIHRHVILSEIKEAVAALPPDVTTQSVMGFDPLPPSDTIYSYVRPERLSPISHGNTIALFFRSLLPNYTMEGERPEEGVAGGLNRNQGLNRLMLAVRDMMANFHLNDLEAPHEDDAEGEGEWD
partner: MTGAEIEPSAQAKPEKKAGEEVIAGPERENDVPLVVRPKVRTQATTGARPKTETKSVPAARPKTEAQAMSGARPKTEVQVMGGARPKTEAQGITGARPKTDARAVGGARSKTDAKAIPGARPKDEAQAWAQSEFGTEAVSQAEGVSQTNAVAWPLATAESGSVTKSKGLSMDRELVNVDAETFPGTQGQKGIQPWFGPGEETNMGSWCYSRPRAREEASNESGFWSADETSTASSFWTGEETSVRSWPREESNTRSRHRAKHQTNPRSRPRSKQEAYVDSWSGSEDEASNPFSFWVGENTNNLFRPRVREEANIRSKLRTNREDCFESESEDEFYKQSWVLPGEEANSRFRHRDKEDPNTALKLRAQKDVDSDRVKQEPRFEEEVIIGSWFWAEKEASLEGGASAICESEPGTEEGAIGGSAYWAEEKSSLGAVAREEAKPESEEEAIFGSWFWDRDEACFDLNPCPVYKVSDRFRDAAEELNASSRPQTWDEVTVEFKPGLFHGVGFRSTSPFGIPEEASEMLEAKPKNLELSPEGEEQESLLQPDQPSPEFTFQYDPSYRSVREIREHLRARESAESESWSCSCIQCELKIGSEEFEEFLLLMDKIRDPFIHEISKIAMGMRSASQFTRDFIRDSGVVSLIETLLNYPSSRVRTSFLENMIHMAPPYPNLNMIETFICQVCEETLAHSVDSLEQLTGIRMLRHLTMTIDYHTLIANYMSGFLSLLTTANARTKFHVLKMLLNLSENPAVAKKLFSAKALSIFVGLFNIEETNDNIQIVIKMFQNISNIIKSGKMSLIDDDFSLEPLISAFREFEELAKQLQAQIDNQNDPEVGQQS
B3: Nuclear autoantigen Sp-100 (Homo sapiens), P23497 (parent)
chain: MAGGGGDLSTRRLNECISPVANEMNHLPAHSHDLQRMFTEDQGVDDRLLYDIVFKHFKRNKVEISNAIKKTFPFLEGLRDRDLITNKMFEDSQDSCRNLVPVQRVVYNVLSELEKTFNLPVLEALFSDVNMQEYPDLIHIYKGFENVIHDKLPLQESEEEEREERSGLQLSLEQGTGENSFRSLTWPPSGSPSHAGTTPPENGLSEHPCETEQINAKRKDTTSDKDDSLGSQQTNEQCAQKAEPTESCEQIAVQVNNGDAGREMPCPLPCDEESPEAELHNHGIQINSCSVRLVDIKKEKPFSNSKVECQAQARTHHNQASDIIVISSEDSEGSTDVDEPLEVFISAPRSEPVINNDNPLESNDEKEGQEATCSRPQIVPEPMDFRKLSTFRESFKKRVIGQDHDFSESSEEEAPAEASSGALRSKHGEKAPMTSRSTSTWRIPSRKRRFSSSDFSDLSNGEELQETCSSSLRRGSGSQPQEPENKKCSCVMCFPKGVPRSQEARTESSQASDMMDTMDVENNSTLEKHSGKRRKKRRHRSKVNGLQRGRKKDRPRKHLTLNNKVQKKRWQQRGRKANTRPLKRRRKRGPRIPKDENINFKQSELPVTCGEVKGTLYKERFKQGTSKKCIQSEDKKWFTPREFEIEGDRGASKNWKLSIRCGGYTLKVLMENKFLPEPPSTRKKRILESHNNTLVDPCEEHKKKNPDASVKFSEFLKKCSETWKTIFAKEKGKFEDMAKADKAHYEREMKTYIPPKGEKKKKFKDPNAPKRPPLAFFLFCSEYRPKIKGEHPGLSIDDVVKKLAGMWNNTAAADKQFYEKKAAKLKEKYKKDIAAYRAKGKPNSAKKRVVKAEKSKKKKEEEEDEEDEQEEENEEDDDK
partner: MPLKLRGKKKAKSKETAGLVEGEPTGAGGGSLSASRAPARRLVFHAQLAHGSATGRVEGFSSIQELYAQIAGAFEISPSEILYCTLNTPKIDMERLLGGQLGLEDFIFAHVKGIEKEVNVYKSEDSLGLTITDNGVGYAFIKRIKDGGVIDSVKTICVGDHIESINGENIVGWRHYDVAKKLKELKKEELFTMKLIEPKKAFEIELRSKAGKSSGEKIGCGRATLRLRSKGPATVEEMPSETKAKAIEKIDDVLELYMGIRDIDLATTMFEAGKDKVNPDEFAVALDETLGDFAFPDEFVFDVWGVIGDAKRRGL
B4: Coiled-coil domain-containing protein 70 (Homo sapiens), Q6NSX1 (parent)
chain: MFSFKVSRWMGLACFRSLAASSPSIRQKKLMHKLQEEKAFREEMKIFREKIEDFREEMWTFRGKIHAFRGQILGFWEEERPFWEEEKTFWKEEKSFWEMEKSFREEEKTFWKKYRTFWKEDKAFWKEDNALWERDRNLLQEDKALWEEEKALWVEERALLEGEKALWEDKTSLWEEENALWEEERAFWMENNGHIAGEQMLEDGPHNANRGQRLLAFSRGRA
partner: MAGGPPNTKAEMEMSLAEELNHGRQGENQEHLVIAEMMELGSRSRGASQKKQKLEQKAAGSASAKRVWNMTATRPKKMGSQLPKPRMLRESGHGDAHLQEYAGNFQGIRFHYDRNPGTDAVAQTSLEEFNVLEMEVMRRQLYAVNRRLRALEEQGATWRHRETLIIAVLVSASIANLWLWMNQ

Variants of: B1
Conditions: with fbf1_human FBF1, Q8TES7

| effect of a mutation on the interaction | Variant |
| --- | --- |
| with no effect | D177N |

Variants of: B2
Conditions: with gasp2_human GPRASP2, Q96D09

| effect of a mutation on the interaction | Variant |
| --- | --- |
| with no effect | V526A |

Variants of: B3
Conditions: with gipc2_human GIPC2, Q8TF65

| effect of a mutation on the interaction | Variant |
| --- | --- |
| with no effect | M433V |

Variants of: B4
Conditions: with fate1_human FATE1, Q969F0

| effect of a mutation on the interaction | Variant |
| --- | --- |
| with no effect | R62Q |
| with no effect | M200V |
